Measured values as given in patent US7960155B1, “Cytochrome p450 monooxygenases and their use for oxidizing organic compounds” (BASF Aktiengesellschaft, priority 1999, dated 2011).

Experiments:
[1] = Activity test for the indole hydroxylation (kinetic parameters); format: biochemical; details: excess of purified enzyme and high indole concentration for the wild type
Experimental: The indole hydroxylation activity was tested in a solution which contained 8 μl of a 10-500 mM indole solution in DMSO, 850 μl of tris/HCl buffer (0.1 M, pH 8.2) and 0.6 nmol of P450 BM-3 wild type or mutant in a final volume of 1 ml. The mixture was preincubated for 9 min before the reaction was started by addition of 50 μl of an aqueous 1 mM solution of NADPH. The reaction was stopped after 20 sec by addition of 60 μl of 1.2 M KOH. Within 5 to 30 sec (under aerobic conditions), the enzyme products were converted completely into indigo [Δ^2,2′-biindoline]-3,3′-dione) and indirubin ([Δ^2,3′-biindoline]-2′,3-dione). The indigo production was determined by means of its absorption at 670 nm. […] A linear curve was obtained for indigo production in a reaction time of 40 sec using 0.6 nmol of wild type or P450 BM-3 mutant and 0.05 to 5.0 mM of indole. […] The formation of indirubin was neglected in the determination of the kinetic parameters. The NADPH consumption was determined at 340 nm and calculated as described (17) using an extinction coefficient of 6.2 mM^−1 cm^−1.
Pure samples of the wild-type enzyme P450 BM-3 and of the mutants Leu188Gln, Phe87Val, F87L188 and F87L188A74 were used for the determination of the kinetic parameters of indole hydroxylation.

[2] = Production of indigo using isolated enzymes (colour reaction with indole and NADPH); format: biochemical
Source text: It is known that indigo is accessible from indole by microbial transformation (24-26). None of these microbial systems, however, contained a P450 monooxygenase. According to the invention, the catalytic activity of the pure enzyme for indole was first determined. The mutant F87L188A74 was mixed with indole. No color reaction could be observed. […] By adjustment of the pH of the reaction mixture to a value of approximately 11, 30 sec after addition of NADPH, the blue coloration was visible within a few seconds. […] The blue pigment was extracted using ethyl acetate and analyzed by TLC. The blue pigment again separated into a more rapidly running blue component and into a slower running red component. The Rf values and the absorption spectra were identical to those values of the extracts from the fermentation broth. The F87L188A74 mutant of P450 BM-3 is thus an indole hydroxylase.

B1: WT: wild-type cytochrome P450 monooxygenase BM-3 from Bacillus megaterium (SEQ ID NO:2) (protein, listed as Bacillus megaterium)
chain: TIKEMPQPKTFGELKNLPLLNTDKPVQALMKIADELGEIFKFEAPGRVTRYLSSQRLIKEACDESRFDKNLSQALKFVRDFAGDGLFTSWTHEKNWKKAHNILLPSFSQQAMKGYHAMMVDIAVQLVQKWERLNADEHIEVPEDMTRLTLDTIGLCGFNYRFNSFYRDQPHPFITSMVRALDEAMNKLQRANPDDPAYDENKRQFQEDIKVMNDLVDKIIADRKASGEQSDDLLTHMLNGKDPETGEPLDDENIRYQIITFLIAGHETTSGLLSFALYFLVKNPHVLQKAAEEAARVLVDPVPSYKQVKQLKYVGMVLNEALRLWPTAPAFSLYAKEDTVLGGEYPLEKGDELMVLIPQLHRDKTIWGDDVEEFRPERFENPSAIPQHAFKPFGNGQRACIGQQFALHEATLVLGMMLKHFDFEDHTNYELDIKETLTLKPEGFVVKAKSKKIPLGGIPSPSTEQSAKKVRKKAENAHNTPLLVLYGSNMGTAEGTARDLADIAMSKGFAPQVATLDSHAGNLPREGAVLIVTASYNGHPPDNAKQFVDWLDQASADEVKGVRYSVFGCGDKNWATTYQKVPAFIDETLAAKGAENIADRGEADASDDFEGTYEEWREHMWSDVAAYFNLDIENSEDNKSTLSLQFVDSAADMPLAKMHGAFSTNVVASKELQQPGSARSTRHLEIELPKEASYQEGDHLGVIPRNYEGIVNRVTARFGLDASQQIRLEAEEEKLAHLPLAKTVSVEELLQYVELQDPVTRTQLRAMAAKTVCPPHKVELEALLEKQAYKEQVLAKRLTMLELLEKYPACEMKFSEFIALLPSIRPRYYSISSSPRVDEKQASITVSVVSGEAWSGYGEYKGIASNYLAELQEGDTITCFISTPQSEFTLPKDPETPLIMVGPGTGVAPFRGFVQARKQLKEQGQSLGEAHLYFGCRSPHEDYLYQEELENAQSEGIITLHTAFSRMPNQPKTYVQHVMEQDGKKLIELLDQGAHFYICGDGSQMAPAVEATLMKSYADVHQVSEADARLWLQQLEEKGRYAKDVWAG
indole oxidation activity (in words) [1]: not able to oxidize indole
blue pigment formation with pure enzyme, indole and NADPH [2]: always negative
